The results in this text go back to paper PMC3555993, “Structural and Functional Analysis of the DEAF-1 and BS69 MYND Domains” (PLoS ONE, 2013).

B2: human DEAF-1 MYND domain (residues 501–544) (domain or fragment)
chain: GAMEQSCVNCGREAMSECTGCHKVNYCSTFCQRKDWKDHQHICGQSA
notes: N-terminal insertion of three amino acids GAM; DEAF-1, human, MYND domain, residues 501-544; 15N- or 15N/13C-labelled for NMR; also called short construct; source: E. coli BL21(DE3), purified (Ni-NTA, TEV cleavage, second Ni column, Superdex 75); not shown: poly-histidine tag, N-terminal, cleaved; thioredoxin, N-terminal, cleaved

In data set [1] the target is B2. The data set can be described thus: NMR titration; 1 mM 15N-labeled DEAF-1 MYND titrated with unlabeled peptide (SMRT up to 9-fold, NCoR up to 5-fold molar excess); chemical shift perturbations fitted to a binding isotherm; fast exchange. The following applies: both partners purified.
Data set [2] deals with the molecule itself. The data set can be described thus: AUC; sedimentation velocity, concentration-dependent; continuous sedimentation distribution at 86 µM DEAF-1 MYND; fitted to a self-association model; dimer to monomers.

B1: SMRT corepressor peptide (residues 1111–1120 of SMRT) (peptide)
peptide: SNPPPLISSA
notes: silencing mediator of retinoid and thyroid receptor (SMRT), residues 1111-1120; Unlabelled peptide; also called SMRT peptide
A word on the Kd: it is the equilibrium constant for the complex coming apart. As for B1, in data set [1], the Kd stood at 5.3 ± 0.54 mM.

One may read the stoichiometry N as the number of molecules, sites or subunits per partner or assembly. In the case of B2, in data set [2], binding was put at a Kd of 0.0005 ± 0.0001 mM and the “stoichiometry N” value is 2.

B3: NCoR corepressor peptide (residues 1031–1040 of NCoR) (peptide)
peptide: RPPPPLIPSS
notes: nuclear receptor corepressor (NCoR), residues 1031-1040; Unlabelled peptide; also called NCoR peptide
For the molecule B3, the Kd in data set [1] was found to be 3.08 ± 0.12 mM.
